# Measurements: paper PMC8412337, “Alpha-single chains of collagen type VI inhibit the fibrogenic effects of triple helical collagen VI in hepatic stellate cells” (PLoS ONE, 2021)
# B1: α2(VI): monomeric alpha 2 single chain of collagen VI isolated from human placentas (protein, UniProt P12110 21-1019, looked up)
# Collagen alpha-2(VI) chain: QQQEVISPDTTERNNNCPEKTDCPIHVYFVLDTSESVTMQSPTDILLFHMKQFVPQFISQLQNEFYLDQVALSWRYGGLHFSDQVEVFSPPGSDRASFIKNLQGISSFRRGTFTDCALANMTEQIRQDRSKGTVHFAVVITDGHVTGSPCGGIKLQAERAREEGIRLFAVAPNQNLKEQGLRDIASTPHELYRNDYATMLPDSTEIDQDTINRIIKVMKHEAYGECYKVSCLEIPGPSGPKGYRGQKGAKGNMGEPGEPGQKGRQGDPGIEGPIGFPGPKGVPGFKGEKGEFGADGRKGAPGLAGKNGTDGQKGKLGRIGPPGCKGDPGNRGPDGYPGEAGSPGERGDQGGKGDPGRPGRRGPPGEIGAKGSKGYQGNSGAPGSPGVKGAKGGPGPRGPKGEPGRRGDPGTKGSPGSDGPKGEKGDPGPEGPRGLAGEVGNKGAKGDRGLPGPRGPQGALGEPGKQGSRGDPGDAGPRGDSGQPGPKGDPGRPGFSYPGPRGAPGEKGEPGPRGPEGGRGDFGLKGEPGRKGEKGEPADPGPPGEPGPRGPRGVPGPEGEPGPPGDPGLTECDVMTYVRETCGCCDCEKRCGALDVVFVIDSSESIGYTNFTLEKNFVINVVNRLGAIAKDPKSETGTRVGVVQYSHEGTFEAIQLDDERIDSLSSFKEAVKNLEWIAGGTWTPSALKFAYDRLIKESRRQKTRVFAVVITDGRHDPRDDDLNLRALCDRDVTVTAIGIGDMFHEKHESENLYSIACDKPQQVRNMTLFSDLVAEKFIDDMEDVLCPDPQIVCPDLPCQTELSVAQCTQRPVDIVFLLDGSERLGEQNFHKARRFVEQVARRLTLARRDDDPLNARVALLQFGGPGEQQVAFPLSHNLTAIHEALETTQYLNSFSHVGAGVVHAINAIVRSPRGGARRHAELSFVFLTDGVTGNDSLHESAHSMRKQNVVPTVLALGSDVDMDVLTTLSLGDRAAVFHEKDYDSLAQPGFFDRFIRWIC
# Key:
# rat HSCs = settings: blocking integrins in rat HSCs; cited from earlier work
# From the text: While the mechanisms underlying this anti-apoptotic property of CVI remain to be fully established, our studies point to a potent repression of BAX by soluble CVI. […] This growth factor withdrawal-induced p53 and Bax upregulation can be mitigated by ECM components through integrin-mediated adhesion and spreading as shown for rat HSCs.
# CFSC = test: Fibrosis-associated gene expression, quantitative real-time PCR; format: cell-based, rat; settings: serum-starved CFSC; 30 mg/l CVI plus 133 mg/l monomeric alpha chain; 24 h; n = 4
# Method: 30 mg/l CVI, 133 mg/l of the monomeric alpha chains of CVI and/or TGF-β (2 ng/ml) were added after 24 h. […] Reverse transcribed complementary DNA templates were amplified by quantitative real-time polymerase chain reaction (PCR; Roche Diagnostics, Mannheim, Germany) using fluorogenic probes labeled with 6-carboxy-fluorescein and 6-carboxy-tetramethylrhodamin (Sigma- Genosys, Steinheim, Germany) and primer pairs (Invitrogen, Karlsruhe, Germany) specific for fibrosis-associated genes (for sequences see S2 Table). Gene expressions were normalized to glyceraldehyde phosphate dehydrogenase (GAPDH).
# [1] = tested on: 10% FBS-induced proliferation of HSC; test: Inhibition of 10% FBS-induced proliferation by alpha single chains, [3H]-thymidine incorporation; format: cell-based, rat; settings: cells grown in 10% FBS, Fig 4A
# Method: (§1) 5x10^3CFSC in 100 μl 10% FBS were seeded into a 96-well flat-bottom tissue culture plate (Nunc, Roskilde, Denmark). After 24 hours, medium was completely removed, and cells were rinsed with 200 μl phosphate-buffered saline and 100 μl standard medium containing only 0.25% FBS were added. Cells were cultured for additional 24 h prior to treatment. Synchronized microcultures in 96-well plates were treated for 2 hours in reduction medium. When appropriate, the reduction medium was supplemented with 40 mg/l of α1(VI), α2(VI) or α3(VI). Then, 30 mg/l CVI or CI as control were added and cells were incubated for 24 h after which [^3H]-thymidine was added for additional 24 h. To assess effects of α3(VI)-derived 30-mer peptides on CVI-induced proliferation of CFSC, the reduction medium was supplemented with a 100-fold molar excess of the respective 30-mer peptides compared to CVI. [^3H]-thymidine incorporation was measured as described before. Cells treated with 150 mmol/l HAc or grown in 10% FBS served as negative and positive controls, respectively. During the last 4 hours of treatment, all cultures received 18.5 kBq [^3H]-thymidine (Amersham, Freiburg, Germany). Cells were fixed with 10% trichloroacetic acid and lysed by 200 mmol/l NaOH. After neutralization with 800 mmol/l HCl, lysates were collected to a glassfibre mat and the de-novo DNA synthesis was assessed by liquid scintillation (LKB Wallac, Bromma, Sweden) and the radioactive decay was counted (for) a minute (cpm).
# [2] = Live/Dead Viability/Cytotoxicity Kit (Calcein AM staining); format: cell-based; settings: 24 h with individual chains; S4 Fig; three independent experiments
# Method: Supplementary file pone.0254557.s004.pdf: S4 Fig Single CVI chains are not toxic To exclude that the effects of the alpha chains on proliferation or gene expression are due to cytotoxic effects, cells were treated 24 h with individual chains and cell viability was determined using the two-colour fluorescence Live/Dead™ Viability/Cytotoxicity Kit (Invitrogen™). Methanol (10% in medium) was used a positive control to induce cell toxicity. Medium was used as a non-toxic negative control. Since acetic acid (HAc) is used as solvent of the chains, cells treated with 0.15 M HAc were included as an additional control group. Shown are Mean ± SD of three independent experiments. Statistics were calculated by one-way ANOVA analysis and Tukey’s multiple comparisons test. Differences p<0.05 were considered significant. (PDF) Click here for additional data file.
# [3] = tested on: CVI-induced proliferation of HSC; test: Inhibition of CVI-induced proliferation by alpha single chains, [3H]-thymidine incorporation; format: cell-based, rat; settings: 40 mg/l single chain, then 30 mg/l CVI; 24 h; primary rHSCs, n = three; Fig 4A legend: CFSC, n = 4
# Method: as §1
Molecule,increase in the Bax/Bcl-2 ratio (rat HSCs),"effect on CVI-induced expression of αSMA, CI and TGF-β (CFSC)",effect on 10% FBS-induced proliferation [1],"cytotoxic effects (Calcein AM staining, cell viability) [2]",inhibition of DNA synthesis in the presence of CVI [3]
Gly-Arg-Gly-Asp-Ser [GRGDS],3 fold,–,–,–,–
α3(VI): monomeric alpha 3 single chain of collagen VI isolated from human placentas,–,largely blocked,did not block any FBS-induced proliferation,not secondary to cytotoxic effects,70%
B1,–,largely blocked,also inhibited 10% FBS-induced proliferation,not secondary to cytotoxic effects,60%
